The values below come from patent US20140056907A1 (Regeneron, published 2014).

In experiment [1] the target is T1, human ASIC1 (human, UniProt P78348 1-528).
T1 sequence: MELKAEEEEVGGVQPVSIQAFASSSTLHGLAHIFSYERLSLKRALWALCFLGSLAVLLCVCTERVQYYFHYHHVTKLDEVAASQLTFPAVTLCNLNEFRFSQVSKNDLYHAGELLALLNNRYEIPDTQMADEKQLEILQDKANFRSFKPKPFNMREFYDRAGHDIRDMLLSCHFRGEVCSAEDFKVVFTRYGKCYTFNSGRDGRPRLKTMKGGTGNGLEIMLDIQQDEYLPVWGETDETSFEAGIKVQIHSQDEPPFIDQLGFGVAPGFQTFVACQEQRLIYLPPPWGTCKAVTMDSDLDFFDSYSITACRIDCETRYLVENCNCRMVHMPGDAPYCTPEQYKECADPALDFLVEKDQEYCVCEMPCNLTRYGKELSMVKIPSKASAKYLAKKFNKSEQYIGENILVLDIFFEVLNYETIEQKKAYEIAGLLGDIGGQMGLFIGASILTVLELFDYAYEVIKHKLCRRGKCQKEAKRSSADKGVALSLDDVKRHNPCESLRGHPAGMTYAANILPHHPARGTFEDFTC
Kind of experiment: cell-based or functional assay.

The next experiment deals with T2, mouse ASIC1a (mouse, UniProt Q6NXK8 1-526).
T2 construct: whole, on cells; Expressed on stably transfected 3T3 cells (3T3/mASIC1a); also called mASIC1a
T2 sequence (looked up): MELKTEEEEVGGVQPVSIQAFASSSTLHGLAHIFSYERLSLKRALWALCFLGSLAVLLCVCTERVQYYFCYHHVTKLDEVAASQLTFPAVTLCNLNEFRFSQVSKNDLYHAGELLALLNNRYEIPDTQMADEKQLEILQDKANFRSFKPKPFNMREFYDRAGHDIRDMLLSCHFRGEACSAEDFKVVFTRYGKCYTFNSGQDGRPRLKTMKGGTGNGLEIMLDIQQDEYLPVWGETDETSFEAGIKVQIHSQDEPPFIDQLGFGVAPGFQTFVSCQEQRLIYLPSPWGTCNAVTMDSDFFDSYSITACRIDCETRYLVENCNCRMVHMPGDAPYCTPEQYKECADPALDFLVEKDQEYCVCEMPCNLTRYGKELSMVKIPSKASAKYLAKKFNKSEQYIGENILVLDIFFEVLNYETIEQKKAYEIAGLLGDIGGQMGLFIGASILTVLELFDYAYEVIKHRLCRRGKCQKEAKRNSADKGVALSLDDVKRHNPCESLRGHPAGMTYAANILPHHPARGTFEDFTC
Nature of the experiment: FACS, 3T3/mASIC1a cells. An excerpt: To further characterize anti-ASIC1 antibodies, their ability to bind either (a) a mouse fibroblast 3T3 cell line stably transfected to overexpress full length human ASIC1 (3T3/hASIC1; amino acids 1-528 of NCBI accession number NP_{—}001086.2 [SEQ ID NO:401]), (b) a 3T3 cell line stably transfected to over express full length mouse ASIC1a (3T3/mASIC1a; amino acids 1-526 of NCBI accession number NP_{—}033727), or (c) a ND7 cell line (ECACC, #92090903) that is a fusion cell line of mouse neuroblastoma and rat dorsal root ganglia that endogenously expresses rat ASIC1, was determined using flow cytometry (FACS). ND7 cells were differentiated by replacing the culture media with low-serum media (0.5% FBS) containing 1 mM dibutyryl-cAMP (Cat. No. sc-201567A, Santa Cruz Biotechnology, Inc., Santa Cruz, Calif.). FACS binding was tested for some antibodies on both undifferentiated ND7 cells and differentiated ND7 cells.
To perform the FACS binding experiments, adherent cells were collected using 1 mM EDTA in PBS, then washed, and re-suspended in cold PBS containing 5% FBS. For each binding experiment, each anti-ASIC1 antibody (at final concentrations of 10 nM of purified antibodies or 3.3 nM for antibody supernatants for binding to 3T3/hASIC1 cells and 5 nM for binding to 3T3/mASIC1a or ND7 cells) was added to 250,000 cells in 500 μL of PBS with 5% FBS. After incubation for 20 minutes at room temperature, a secondary antibody which recognizes human Fc (Cat. No. 109-136-098, Jackson ImmunoResearch Laboratories, Inc., West Grove, Pa.) or mouse Fc (Cat. No. 550826, BD Biosciences, San Jose, Calif.) and is conjugated to allophycocyanin, was then added to the cell mixture at a final concentration of 13.3 nM. After incubating for 20 minutes on ice, the cells were washed and resuspended in PBS containing 5% FBS, then sorted and analyzed on a flow cytometer (FACSCalibur, BD Biosciences, San Jose, Calif.) to determine relative binding by the candidate antibodies to the tested cell lines. Histograms of cells stained with anti-ASIC1 antibodies were compared with those of cells stained with secondary antibody alone. Percentage of ASIC1 signal over secondary antibody alone was calculated using FlowJo software (Tree Star, Ashland, Oreg.).
A general note: A flow cytometer gives signals particle by particle.

Experiment [2] concerns the target T1, human ASIC1. Nature of the experiment: FACS titration, 3T3/hASIC1 cells.

B1: H3M7102N (antibody, V domains shown)
VH: EVQLLASGGGLVQPGGSLRLSCAASGFTFSSFAMSWVRQAPGKGLEWVSGISGSGGSTYYADSVKGRFTISRDNSKNTLYLQMNSLRAEDTAAYYCAKEAYKWQPWGQGIRVTVSS
VL: DIQMTQSPSTLSASVGDRVSITCRASQSISSWLAWYQQKPGKAPKLLIYKASNLDSGVPSRFSGSGSGTDFTLTISSLQPDDFATYYCQQYNSYSYTFGQGTKLEIK
notes: Chimeric: human variable, mouse constant domains; H3M prefix marks the Fc, isotype not spelled out
As to B1, the “apparent IC50, human ASIC1 current, Q-Patch” value in the experiment with human ASIC1 [1] is no more than 10 nM. Moreover, in the experiment with mouse ASIC1a, the binding result is “binds”. Moreover, it took 5.4 nM to reach a half-maximal effect with human ASIC1 [2] (EC50).

B2: H3M6726N (antibody, V domains shown)
VH: EVQLLESGGVLVQPGGSLRLSCAASGFNFNNYDMSWVRQAPGKGLEWVSVISASGRNTYYADSVKGRFTISRDNSKISLYLQMNSLRPEDTAVYYCAKDHLVHYYYGMDVWGQGTTVTVSS
VL: DIMMTQSPLSLSVTPGEPASISCRSSQSLLHSNGYNYLDWYLQKSGQSPHLLIYLGSNRASGVPDRFSGSGSGTDFTLKISRVEAEDGGVYYCMQALQTPRTFGQGTKVEIK
notes: as for B1
B2: the “apparent IC50, human ASIC1 current, Q-Patch” value in the experiment with human ASIC1 [1] was greater than 10 nM. Moreover, in the experiment with mouse ASIC1a, the binding result was “binds”. Moreover, the EC50 (usually the concentration giving half of the maximal effect) with human ASIC1 [2] amounted to 2.6 nM.
